The record followed here is PMC9893541 (BMC Biology, 2023).

What all share (experiment): SPR; BIAcore T-200; chimeric Fc-type 1 receptor coupled to a Series S Protein A chip; ligands 6.25-0.049 nM flowed at 50 uL/min, 300 s association, 1000 s dissociation; 20 mM HEPES pH 7.4, 350 mM NaCl, 0.005 % P-20, 0.5 mg/mL BSA, 3.4 mM EDTA; kinetic 1:1 fit (also a bivalent fit); apparent KD = kd/ka; average of N=2
What all share (conditions): both partners purified

Assay [1] has as its target T1, BMP4 homodimer (human, UniProt P12644 293-408).
T1 construct: additional Met residue on the N-terminus of the BMP4 construct; bone morphogenetic protein 4 (BMP4), mature domain; Dimer stabilised by an inter-chain disulfide bond; also called homodimeric BMP4
T1 sequence: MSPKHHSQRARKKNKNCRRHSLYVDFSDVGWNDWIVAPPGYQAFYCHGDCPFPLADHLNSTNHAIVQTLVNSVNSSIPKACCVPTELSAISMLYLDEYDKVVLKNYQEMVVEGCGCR

Assay [2] addresses T2, BMP2/GDF5 heterodimer (human, UniProt P12643 283-396; P43026 382-501).
T2 construct: bone morphogenetic protein 2 (BMP2), mature domain; Growth and Differentiation Factor 5 (GDF5), mature domain; Made by people from two natural mature chains; disulfide-linked dimer; also called GDF5/BMP2; WT heterodimer; copies: 1 + 1

Assay [3] deals with T3, GDF5 homodimer (human, UniProt P43026 382-501).
T3 construct: Growth and Differentiation Factor 5 (GDF5), mature domain; Dimer stabilised by an inter-chain disulfide bond; also called homodimeric GDF5; Growth and Differentiation Factor 5
T3 sequence (looked up): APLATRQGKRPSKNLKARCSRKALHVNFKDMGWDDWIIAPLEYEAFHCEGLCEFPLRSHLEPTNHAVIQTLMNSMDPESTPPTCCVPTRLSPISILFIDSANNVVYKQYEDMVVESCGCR

Assay [4] deals with T4, BMP2 homodimer (human, UniProt P12643 283-396).
T4 construct: bone morphogenetic protein 2 (BMP2), mature domain; cDNA received from Hongwen Ma; Dimer stabilised by an inter-chain disulfide bond; Cloned in pET21a; no tag is mentioned; also called homodimeric BMP2; bone morphogenetic protein 2

Assay [5] deals with T5, BMP4/GDF5 heterodimer (human, UniProt P12644 293-408; P43026 382-501).
T5 construct: additional Met residue on the N-terminus of the BMP4 construct; bone morphogenetic protein 4 (BMP4), mature domain; Growth and Differentiation Factor 5 (GDF5), mature domain; Made by people from two natural mature chains; disulfide-linked dimer; also called GDF5/BMP4; copies: 1 + 1
T5 sequence 1: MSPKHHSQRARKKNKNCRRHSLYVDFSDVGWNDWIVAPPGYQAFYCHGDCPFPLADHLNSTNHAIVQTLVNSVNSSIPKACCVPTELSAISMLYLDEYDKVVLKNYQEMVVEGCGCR
T5 sequence 2: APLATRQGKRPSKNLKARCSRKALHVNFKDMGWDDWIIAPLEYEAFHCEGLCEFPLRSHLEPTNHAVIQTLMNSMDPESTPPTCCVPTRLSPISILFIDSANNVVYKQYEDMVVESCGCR

T2 sequence (P12643 283-396, one chain of several): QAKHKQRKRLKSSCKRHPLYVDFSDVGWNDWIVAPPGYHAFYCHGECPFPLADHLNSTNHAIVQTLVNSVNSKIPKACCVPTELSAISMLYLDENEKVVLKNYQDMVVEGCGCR
T4 sequence (P12643 283-396): as the sequence (P12643 283-396, one chain of several) above

B1: FC-(Alk6)2 (Fc fusion, UniProt O00238 14-126, looked up)
chain: KKEDGESTAPTPRPKVLRCKCHHHCPEDSVNNICSTDGYCFTMIEEDDSGLPVVTSGCLGLEGSDFQCRDTPIPHQRRSIECCTERNECNKDLHPTLPPLKNRDFVDGPIHHR
notes: type 1 receptor Alk6 (BMPR1B) in a recombinant chimeric Fc-receptor; also called chimeric FC-receptor; source: bought: R&D (Cat# 505-PR-100)
Consider B1, for which the Kd came to 0.113 nM in assay [1]; 0.026 nM in assay [2]; 0.057 nM in assay [3]; 0.102 nM in assay [4]; 0.046 nM in assay [5].
